Measurements: patent publication US8034572B2, “Receptor for GDNF family ligands” (priority 2006, dated 2011)

How the values were obtained:
Src family kinase = experiment: Src kinase phosphorylation assay in SHEP cells; assay type: cell-based, human; conditions: SHEP cells plated on immobilized protein
Protocol: SHEP cells from 10-cm plates were harvested as described above and plated on GDNF-coated 35-mm Petri dishes. Cells were allowed to sediment for 10 min at room temperature and then transferred to 37° C. for additional 15 min. Cells were lysed in the lysis buffer (TBS, 1% Triton X-100, 0.5% deoxycholic acid, 0.1% SDS, 10% glycerol, 1 mM Na3VO4, 1 mM PMSF and Complete protease inhibitor mixture). Lysates were analyzed on 10% SDS-PAGE and western blots were stained with anti-pY^418Src or anti-pp60Src antibodies (Biosource). Some cells were pretreated with heparinase III or PI-PLC.

syndecan-3 ectodomain = target: T1, syndecan-3 ectodomain (Rattus norvegicus, UniProt P33671); experiment: SPR (IAsys): syndecan-3 ectodomain interaction with GFLs cuvette; assay type: binding; conditions: syndecan-3 ectodomain in solution
T1 construct: purified as an ectodomain from early postnatal rat brains; from tissue; host or cells: early postnatal rat brain
Protocol: (§1) The affinities of GFLs for heparin and heparin-like molecules (e.g. syndecan-3) were determined by plasmon surface resonance using the IAsys system (Affinity Sensors, Cambridge, UK). Planar aminosilane cuvettes (Affinity Sensors) were used for protein coupling to avoid problems with mass transport, which occur frequently with matrix surfaces. In the initial approach, heparin-BSA was immobilized to the cuvette surface using the manufacturer's instructions and different ligand concentrations were used to determine association (ka) and dissociation (kdis) rates using the IAsys Fastfit software. The dissociation constant Kd was determined from the binding dynamics as […], or from equilibrium response (R) using a simple Langmuir fit: R=(Rmax*C)/(Kd+C), where C is the ligand concentration. […] The dissociation constants were determined from binding dynamics and equilibrium response. The same cuvettes were used to test binding of heparan sulfate proteoglycan syndecan-3, which was purified as an ectodomain from early postnatal rat brains by HB-GAM affinity chromatography (Raulo et al., 1994).
(§2) Binding was analyzed using IAsys cuvettes with immobilized heparin-BSA or GFLs. The dissociation constant Kd was determined from dynamics of association and dissociation (Kd=kdis/ka), or from equilibrium response R (R=(Rmax*C)/(Kd+C), where C is ligand concentration).

[1] = system: E15 mouse cortical neurons; experiment: Cortical neurons migration assay (transfilter); assay type: cell-based; conditions: 16 hours
Protocol: Cortical lobes from E15 mouse brains were dissected under a stereomicroscope and dissociated using a 20 G needle and a syringe in DMEM containing 10% FCS. The cortical preparation was spun down at 1000 rpm for 5 min and the pellet was washed with culture medium containing serum. The pellet was carefully resuspended and the preparation was allowed to sediment for five more minutes before the cleared supernatant was collected. The cells in the supernatant were allowed to recover in serum-containing DMEM for 30-60 min. Recovered cells were washed once with the assay medium (DMEM with 10 mg/ml BSA, L-glutamine and antibiotics) and resuspended in the same medium.
Transwell filters (Costar) with 12-μm pore size or polycarbonate filters saturated with 100 μg/ml poly-L-lysine were coated with GDNF or ΔN-GDNF in 1 μM, 10 μM and 100 μM concentrations overnight at 4° C. and equilibrated with assay medium 30 min in +37° C. incubator prior to use. The spontaneous and random migratory activity of neural cells was controlled with uncoated filters.
Embryonic cortical cells were plated on the filters at 150000 cells per filter and left to migrate for 16 hours. […] The number of cells that had migrated to the coated surface of the filters was calculated using the inverted light microscope Olympus IX71.

[2] = system: rat embryonic hippocampal neurons; experiment: Neurite outgrowth assay in E17 rat hippocampal neurons; assay type: cell-based
Protocol: Hippocampi were dissected from E17 embryonic rat brains under the microscope and transferred to the preparation media (HBBS without Ca^2+ and Mg^2+ supplemented with 1 mM sodium pyruvate (Gibco) and buffered by 10 mM Hepes pH 7.2), then partially digested by papain and triturated in the preparation media supplemented with DNase I. Cells were washed with HBBS containing Ca^2+ and Mg^2+ and transferred to the growth media (Neurobasal media with B27 supplement, 2 mM L-glutamine, 25 μM glutamic acid and penicillin and streptomycin (Gibco)). For enzymatic treatments neurons were kept in the growth media supplemented with 0.2% BSA at +37° C. for one hour. After the treatment cells in the same media were seeded on the protein-coated cover slips (see above) and after 10 min, the media was changed for B27-free media. Neurons were incubated at +37° C., 5% CO2 for 18 hours.
For immunocytochemistry neurons were washed with PBS and fixed with 4% PFA, permeabilized with 0.1% Triton X-100 and stained with rabbit polyclonal antiserum to Protein Gene Product 9.5 (Affiniti), neuron-specific Class III tubulin-βIII clone Tuj1 antibodies (BABCO) or with antibodies against the neurofilament triplet, 13AA8 (Arumäe et al., 1993). Secondary antibodies were goat anti-rabbit or anti-mouse Alexa488-conjugated (Molecular Probes).
The immunostained cultures were viewed using the ×20 objective of a Zeiss Axioplan 2 fluorescent microscope (Zeiss). Neurons with at least two times longer than cell body diameter processes were considered process-bearing. Three cover slips were used in parallel and 100 neurons per cover slip were counted. Results were derived from 3 to 5 independent experiments.

[3] = Binding of ^125I-labeled GFLs to heparin-sepharose column, step NaCl elution
Protocol: GFL iodination was performed as described (Lindahl et al., 2001). Heparin-sepharose column (Amersham Biosciences) chromatography was performed to assess GFL binding to heparin. GDNF, ARTN, NRTN and PSPN were purchased from PeproTech, Ltd. or R&D Systems, Inc. GFLs were enzymatically labeled with carrier-free [^125I]NaI (Amersham Biosciences) by the lactoperoxidase method to a specific activity of 100000-200000 cpm/ng as described elsewhere (Lindahl et al., 2001). 15000-20000 cpm of iodinated GFLs, together with 10 μg of the same unlabeled protein as a carrier, were injected into a 1 ml heparin-sepharose column (Amersham Biosciences) in phosphate buffer pH 7.2 containing 100 mM NaCl and 10 mg/ml of BSA. After washing with 5 volumes of the same buffer, iodinated GFLs were eluted from the column by step elution (2 ml) with increasing NaCl concentration. The resulting fractions were counted on Rackbeta 1214 (LKB/Wallac) scintillation counter.

[4] = SPR (IAsys): heparin interaction with GFLs cuvette; assay type: binding; conditions: GFLs cuvette
Protocol: as §1, §2

[5] = SPR (IAsys): GFLs interaction with heparin-BSA cuvette; assay type: binding
Protocol: as §1, §2

T1 sequence (P33671 45-387 limits assumed): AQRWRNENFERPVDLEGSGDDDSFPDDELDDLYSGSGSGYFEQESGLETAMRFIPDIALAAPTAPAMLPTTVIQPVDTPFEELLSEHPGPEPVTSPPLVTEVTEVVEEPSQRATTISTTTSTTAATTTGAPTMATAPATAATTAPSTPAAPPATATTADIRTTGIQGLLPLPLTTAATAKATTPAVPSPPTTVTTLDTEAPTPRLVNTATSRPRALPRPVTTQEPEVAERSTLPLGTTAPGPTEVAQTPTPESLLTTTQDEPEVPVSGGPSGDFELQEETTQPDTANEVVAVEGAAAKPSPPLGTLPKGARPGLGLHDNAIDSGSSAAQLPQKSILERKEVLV

ka (×10^−5) (M^−1s^−1) (syndecan-3 ectodomain): 13 ± 2 (×10^−5) M^−1s^−1 | NaCl concentration at elution from heparin-sepharose column ([3]; ^125I-GFLs, step NaCl gradient): 0.75 to 1 M | binding to heparin-sepharose column ([3]; ^125I-labeled GFLs): bind strongly to heparin | Kd = kdis/ka ([4]; from dynamics): 22.7 ± 2.7 nM | Kd ([4]; from equilibrium response, read-out: Kd (equilibrium)): 12.3 ± 3.4 nM | Kd = kdis/ka ([5]; from dynamics): 47.3 ± 9.9 nM | Kd ([5]; from equilibrium response): 51.3 ± 3.6 nM
B1: GDNF: Glial cell line-derived neurotrophic factor, secreted growth factor, GDNF family ligand (protein)
chain: SPDKQMAVLPRRERNRQAAAANPENSRGKGRRGQRGKNRGCVLTAIHLNVTDLGLGYETKEELIFRYCSGSCDAAETTYDKILKNLSRNRRLVSDKVGQACCRPIAFDDDLSFLDDNLVYHILRKHSAKRCGCI
activation of Src family kinases (pY^418Src Western blot) (Src family kinase): induces HSPG-dependent activation of Src family kinases | migration of syndecan-3-deficient embryonic cortical neurons ([1]; filters coated with GDNF): strongly impaired | migration of wild type embryonic cortical cells ([1]; filters coated with protein): stimulated massive migration | neurite outgrowth on immobilized protein ([2]; E17 rat hippocampal neurons, 18 hours): stimulated neurite outgrowth | neurite outgrowth with soluble protein ([2]; soluble GDNF added to neurons grown on BSA-matrix): failed to induce neurites | ka (×10^−5) (M^−1s^−1) ([4]; heparin in solution): 15 (×10^−5) M^−1s^−1 | kdis ([4]; heparin in solution): 0.034 s⁻¹ | ka (×10^−5) (M^−1s^−1) ([5]; GFL in solution): 3.7 (×10^−5) M^−1s^−1 | kdis ([5]; GFL in solution): 0.017 s⁻¹
